Data as given in IntAct's records for PubMed 10198631.

B1: Bcl-2-like protein 11 (Mus musculus), O54918-2 (parent)
chain: MAKQPSDVSSECDREGGQLQPAERPPQLRPGAPTSLQTEPQDRSPAPMSCDKSTQTPSPPCQAFNHYLSAMASIRQSQEEPEDLRPEIRIAQELRRIGDEFNETYTRRVFANDYREAEDHPQMVILQLLRFIFRLVWRRH

Variants of: B1
Settings: with dlrb1_human DYNLRB1, Q9NP97
Chain of dlrb1_human DYNLRB1, Q9NP97 (Q9NP97 whole entry): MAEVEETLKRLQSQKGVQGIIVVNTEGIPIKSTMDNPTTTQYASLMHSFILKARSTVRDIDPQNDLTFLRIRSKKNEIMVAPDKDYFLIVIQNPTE

Effect of a mutation on the interaction, decreasing interaction:
MAKQPSDVSSECDREGGQLQPAERPPQLRPGAPTSLQTEPQDRSPAPMSCDKSAQTPSPPCQAFSHYLSAMASIRQSQEEPEDLRPEIRIAQELRRIGDEFNETYTRRVFANDYREAEDHPQMVILQLLRFIFRLVWRRH [T54A;N65S]
MAKQPSDVSSECDREGGQLQPAERPPQLRPGAPTSLQTEPQDRSPAPMSCDKSAQTPSPPCQAFNHYLSAMASIRQSQEEPEDLRPEIRIAQELRRIGDEFNETYTRRVFANDYREAEDHPQMVILQLLRFIFRLVWRRH [T54A]
MAKQPSDVSSECDREGGQLQPAERPPQLRPGAPTSLQTEPQDRSPAPMSCDKPTQTPSPPCQAFNHYLSAMASIRQSQEEPEDLRPEIRIAQELRRIGDEFNETYTRRVFANDYREAEDHPQMVILQLLRFIFRLVWRRH [S53P]
